System: THP-1 cells
Test: Cytotoxicity assay (CCK-8)
Type: cell-based
Conditions: CCK-8, 0–50 μM, 12 h, 37 °C
Protocol: Cytotoxicity assay (CCK-8)
The cytotoxicity of FPy1 and YPy1 to THP-1 was evaluated by cell counting kit-8 (CCK-8). Briefly, the THP-1 cells were seeded in 96-well plates (5000 cells/well) and cultured at 37 °C for 24 hours. Various concentrations of FPy1 or YPy1 (0, 2.5, 5, 10, 20, 30, 40, 50 μM) in RPMI 1640 medium were added, and the cells were kept incubation for 12 hours. Then, the cells were washed with PBS and incubated in the 100 μL fresh medium with 10 μL CCK8 dye for an additional 2 hours. The absorbance was measured at 450 nm using a Tecan Infinite M1000 Multi-function microplate reader, and cell viability was calculated using the formula:
Cell viability (%) = [(OD test-ODblank)/(ODcontrol-ODblank)] ×100%
Intracellular imaging with FPy1 in THP-1 cells
THP-1 cells were seeded in dishes and cultured overnight. […] The fluorescence imaging was performed under the excitation at 514 nm with signal collection in the range […]
for 4 hours, the cells were further treated with Nig (10 μM) for 2 hours. […] The distribution of FPy1 was analyzed by collecting organelle-specific dye fluorescence at 495-525 nm with 488 nm excitation, while simultaneously detecting FPy1 fluorescence at 530-610 nm with 514 nm excitation. […]
Nucleus pulposus cells were isolated from discs and resuspended in 1mL DMEM/F12 medium containing 10 μM ITS-A. A total of […] were counted and transferred into centrifuge tubes. […]

Substance | cytotoxicity towards THP-1 cells
–FLTDG– [FPy1, RhoB donor, hNR quencher] | low cytotoxicity
–YVADG– [YPy1, caspase-1-responsive FRET probe with recognition peptide –YVADG–; RhoB donor, hNR quencher] | low cytotoxicity

— publication PMC12598616, “Design and optimization of caspase-1-responsive fluorescent probes for pyroptosis imaging and anti-pyroptosis drug screening” (Chemical Science, 2025)
